Assay results reported in PMC10397247.

Assays:
Assay in all cases: two-hybrid library CCNG1;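 note: natural log of median RNA to DNA barcode read ratio; higher means stronger binding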
4H687-bN = molecular target: T1, 4H687-bN
T1 chain: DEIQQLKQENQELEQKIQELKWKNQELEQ

4H3606-bN = molecular target: T2, 4H3606-bN
T2 chain: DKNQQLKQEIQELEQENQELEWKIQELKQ

4H462-bN = molecular target: T3, 4H462-bN
T3 chain: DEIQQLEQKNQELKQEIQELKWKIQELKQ

4H918-bN = molecular target: T4, 4H918-bN
T4 chain: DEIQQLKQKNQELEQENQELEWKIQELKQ

4H568-bN = molecular target: T5, 4H568-bN
T5 chain: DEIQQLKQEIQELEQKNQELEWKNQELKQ

4H331-bN = molecular target: T6, 4H331-bN
T6 chain: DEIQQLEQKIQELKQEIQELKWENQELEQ

4H883-bN = molecular target: T7, 4H883-bN
T7 chain: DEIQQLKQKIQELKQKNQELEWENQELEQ

4H797-bN = molecular target: T8, 4H797-bN
T8 chain: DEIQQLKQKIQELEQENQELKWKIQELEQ

4H370-bN = molecular target: T9, 4H370-bN
T9 chain: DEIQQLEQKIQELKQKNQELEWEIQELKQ

4H1446-bN = molecular target: T10, 4H1446-bN
T10 chain: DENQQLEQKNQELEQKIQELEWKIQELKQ

4H1845-bN = molecular target: T11, 4H1845-bN
T11 chain: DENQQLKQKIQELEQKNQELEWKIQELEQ

4H1369-bN = molecular target: T12, 4H1369-bN
T12 chain: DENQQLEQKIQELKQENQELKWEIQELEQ

4H3189-bN = molecular target: T13, 4H3189-bN
T13 chain: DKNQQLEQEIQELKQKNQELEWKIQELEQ

4H967-bN = molecular target: T14, 4H967-bN
T14 chain: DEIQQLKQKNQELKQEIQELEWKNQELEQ

4H2610-bN = molecular target: T15, 4H2610-bN
T15 chain: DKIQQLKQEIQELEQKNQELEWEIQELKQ

4H2576-bN = molecular target: T16, 4H2576-bN
T16 chain: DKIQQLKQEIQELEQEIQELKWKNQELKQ

4H2697-bN = molecular target: T17, 4H2697-bN
T17 chain: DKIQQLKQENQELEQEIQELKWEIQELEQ

4H72-bN = molecular target: T18, 4H72-bN
T18 chain: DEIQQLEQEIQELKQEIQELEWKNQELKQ

4H607-bN = molecular target: T19, 4H607-bN
T19 chain: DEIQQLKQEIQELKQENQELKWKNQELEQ

4H3782-bN = molecular target: T20, 4H3782-bN
T20 chain: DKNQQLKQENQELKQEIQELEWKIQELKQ

4H2162-bA = molecular target: T21, 4H2162-bA
T21 chain: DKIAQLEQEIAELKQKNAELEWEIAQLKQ

4H2667-bN = molecular target: T22, 4H2667-bN
T22 chain: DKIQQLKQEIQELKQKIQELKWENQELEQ

4H4001-bN = molecular target: T23, 4H4001-bN
T23 chain: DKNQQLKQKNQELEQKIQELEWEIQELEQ

4H3843-bN = molecular target: T24, 4H3843-bN
T24 chain: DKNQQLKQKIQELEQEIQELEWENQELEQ

4H953-bN = molecular target: T25, 4H953-bN
T25 chain: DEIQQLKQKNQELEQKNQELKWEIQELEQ

4H687-bH = molecular target: T26, 4H687-bH
T26 chain: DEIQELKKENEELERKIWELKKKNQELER

4H717-bH = molecular target: T27, 4H717-bH
T27 chain: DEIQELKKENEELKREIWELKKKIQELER

4H953-bH = molecular target: T28, 4H953-bH
T28 chain: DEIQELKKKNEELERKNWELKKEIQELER

O10-bH = molecular target: T29, O10-bH
T29 chain: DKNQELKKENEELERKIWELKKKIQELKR

4H797-bH = molecular target: T30, 4H797-bH
T30 chain: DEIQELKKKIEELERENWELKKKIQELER

4H908-bH = molecular target: T31, 4H908-bH
T31 chain: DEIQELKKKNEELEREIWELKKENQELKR

4H967-bH = molecular target: T32, 4H967-bH
T32 chain: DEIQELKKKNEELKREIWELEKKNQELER

4H72-bH = molecular target: T33, 4H72-bH
T33 chain: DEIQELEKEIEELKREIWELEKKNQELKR

4H883-bH = molecular target: T34, 4H883-bH
T34 chain: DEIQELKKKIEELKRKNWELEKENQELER

4H754-bH = molecular target: T35, 4H754-bH
T35 chain: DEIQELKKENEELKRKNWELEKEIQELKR

4H918-bH = molecular target: T36, 4H918-bH
T36 chain: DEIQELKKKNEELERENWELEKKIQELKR

4H1387-bN = molecular target: T37, 4H1387-bN
T37 chain: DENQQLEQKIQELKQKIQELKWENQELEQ

4H3601-bN = molecular target: T38, 4H3601-bN
T38 chain: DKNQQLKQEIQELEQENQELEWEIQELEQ

4H1406-bN = molecular target: T39, 4H1406-bN
T39 chain: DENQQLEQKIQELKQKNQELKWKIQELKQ

4H3592-bN = molecular target: T40, 4H3592-bN
T40 chain: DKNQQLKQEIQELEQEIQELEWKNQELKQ

4H2162-bN = molecular target: T41, 4H2162-bN
T41 chain: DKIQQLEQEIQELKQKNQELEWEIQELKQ

4H4038-bN = molecular target: T42, 4H4038-bN
T42 chain: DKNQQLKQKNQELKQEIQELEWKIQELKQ

4H3907-bN = molecular target: T43, 4H3907-bN
T43 chain: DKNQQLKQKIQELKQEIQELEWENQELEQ

4H454-bN = molecular target: T44, 4H454-bN
T44 chain: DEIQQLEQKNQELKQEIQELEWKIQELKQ

Binder DENQQLEQKIQELKQENQELKWEIQELEQ [4H1369-bN] has an interaction score (4H687-bN) of -1.7, an interaction score (4H3606-bN) of 0.215 and an interaction score (4H462-bN) of -1.07. The interaction score (4H918-bN) was -0.868, the interaction score (4H568-bN) was -1.26 and the interaction score (4H331-bN) was -1.16. For the same binder, the interaction score (4H883-bN) was -1.19, the interaction score (4H797-bN) was -1.65 and the interaction score (4H370-bN) was -1.79. It also gave an interaction score (4H1446-bN) of -2.34, an interaction score (4H1845-bN) of -1.4 and an interaction score (4H1369-bN) of -0.802. For the same binder, the interaction score (4H3189-bN) was -0.697, the interaction score (4H967-bN) was -0.997 and the interaction score (4H2610-bN) was -0.97. It also gave an interaction score (4H2576-bN) of -0.023, an interaction score (4H2697-bN) of -0.852 and an interaction score (4H72-bN) of -1.26. For the same binder, the interaction score (4H607-bN) was -0.655, the interaction score (4H3782-bN) was -1.06 and the interaction score (4H2162-bA) was -0.463. It also gave an interaction score (4H2667-bN) of -1.23, an interaction score (4H4001-bN) of -0.815 and an interaction score (4H3843-bN) of -1.02. It also gave an interaction score (4H953-bN) of -1.2.

DEIQELKKENEELERKIWELKKKNQELER [4H687-bH] was tested, and the interaction score (4H687-bH) was 0, the interaction score (4H717-bH) was -0.0944 and the interaction score (4H953-bH) was -0.5. It also gave an interaction score (O10-bH) of -0.602, an interaction score (4H797-bH) of -0.897 and an interaction score (4H908-bH) of -0.414. The interaction score (4H967-bH) was 1.63, the interaction score (4H72-bH) was 0.182 and the interaction score (4H883-bH) was 0.0397. It also gave an interaction score (4H754-bH) of -0.221 and an interaction score (4H918-bH) of -0.146.

DENQQLEQKIQELKQKIQELKWENQELEQ [4H1387-bN] showed an interaction score (4H1387-bN) of -1.9, an interaction score (4H3601-bN) of -0.293 and an interaction score (4H1406-bN) of -0.625. For the same binder, the interaction score (4H3592-bN) was 0.94, the interaction score (4H2162-bN) was -2.27 and the interaction score (4H4038-bN) was 0.464. It also gave an interaction score (4H3907-bN) of 1.31 and an interaction score (4H454-bN) of -0.28.
